This assay in a line: Kinetic parameters of reported proteins catalyzing the Kemp elimination (literature). The format is biochemical. The conditions noted are these: literature kcat/KM (M-1s-1) divided by total number of amino acids. An excerpt: Extended Data Table 4 çKinetic parameters of reported proteins catalyzing the Kemp elimination of 5-nitrobenzisoxazole with base-mediated mechanism.
Protein Description kcat/KM, kcat, KM, Amino Ref
AlleyCat Single mutation of 5.8 ND ND 0.08 64
Lysozyme Double mutation of 1.8 ND ND 0.01 138 […]

This note sets out measurements from doi:10.1101/2025.01.30.635804, “Emergence of specific binding and catalysis from a designed generalist binding protein” (bioRxiv, 2025).

Changes are numbered by the printed parent chain. Numbers in names are those of the source.

B1: tKSI: Natural enzyme; ref 68 (protein, UniProt P00947 1-125, looked up)
Steroid Delta-isomerase: MNTPEHMTAVVQRYVAALNAGDLDGIVALFADDATVEDPVGSEPRSGTAAIREFYANSLKLPLAVELTQEVRAVANEAAFAFTVSFEYQGRKTVVAPIDHFRFNGAGKVVSMRALFGEKNIHAGA
The molecule B1 gave an Amino acid efficiency of 0.02.

B2: D38N tKSI: Single mutation of tKSI; ref 68 (protein, UniProt P00947 1-125, looked up, variant D38N)
Steroid Delta-isomerase: B1 Steroid Delta-isomerase with D38N
Molecule B2 displayed an Amino acid efficiency of 140.
